Reference: patent US20220098319A1 (SHANGHAI PHARMAEXPLORER, published 2022)

T1: cynomolgus monkey CD73 (on transfected CHOK1 cells) (cynomolgus monkey, UniProt A0A2K5V5U7 27-549)
T1 construct: whole, on cells; also called CHOK1-cCD73; CHOK1-CCD73
T1 sequence: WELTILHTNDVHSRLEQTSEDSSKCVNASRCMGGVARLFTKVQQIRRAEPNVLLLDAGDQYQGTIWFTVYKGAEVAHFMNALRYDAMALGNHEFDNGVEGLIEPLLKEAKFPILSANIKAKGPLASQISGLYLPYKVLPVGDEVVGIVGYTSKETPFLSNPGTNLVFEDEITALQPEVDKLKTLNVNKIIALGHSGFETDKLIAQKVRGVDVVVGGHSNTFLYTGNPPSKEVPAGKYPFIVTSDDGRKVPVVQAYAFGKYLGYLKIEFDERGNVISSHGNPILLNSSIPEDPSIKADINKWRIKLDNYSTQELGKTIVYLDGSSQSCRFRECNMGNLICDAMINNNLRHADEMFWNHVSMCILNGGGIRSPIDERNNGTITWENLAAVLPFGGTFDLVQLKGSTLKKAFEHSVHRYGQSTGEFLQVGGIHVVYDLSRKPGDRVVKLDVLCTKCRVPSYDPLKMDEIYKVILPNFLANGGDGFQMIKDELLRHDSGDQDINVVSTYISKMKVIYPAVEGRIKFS

T2: human CD73 (full length, on transfected CHOK1 cells) (human, UniProt P21589 27-549)
T2 construct: whole, on cells; The same id is used for CD73 on human CD4+ T cells in the proliferation assays; also called CHOK1-hCD73; hCD73
T2 sequence (looked up): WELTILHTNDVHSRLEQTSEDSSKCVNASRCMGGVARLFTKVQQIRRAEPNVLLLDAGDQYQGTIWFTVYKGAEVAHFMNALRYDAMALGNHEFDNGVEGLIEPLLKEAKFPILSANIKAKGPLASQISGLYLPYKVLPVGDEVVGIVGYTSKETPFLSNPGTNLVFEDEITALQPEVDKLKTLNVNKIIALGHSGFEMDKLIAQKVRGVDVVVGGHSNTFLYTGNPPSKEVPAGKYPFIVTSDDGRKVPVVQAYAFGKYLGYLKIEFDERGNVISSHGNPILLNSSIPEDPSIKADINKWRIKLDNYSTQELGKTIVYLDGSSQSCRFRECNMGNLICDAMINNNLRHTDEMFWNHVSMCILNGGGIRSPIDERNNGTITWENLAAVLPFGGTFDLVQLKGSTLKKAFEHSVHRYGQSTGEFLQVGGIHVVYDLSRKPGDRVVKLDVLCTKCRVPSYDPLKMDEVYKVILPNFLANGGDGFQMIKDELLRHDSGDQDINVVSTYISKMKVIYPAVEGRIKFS

T3: His-tagged CD73 extracellular domain protein (hCD73 ECD-His) (human, UniProt P21589 27-547)
T3 construct: Expressed in CHO cells from pTT5-hCD73 ECD-His6, purified on nickel column; also called hCD73 ECD-His6; human CD73 ECD
T3 sequence: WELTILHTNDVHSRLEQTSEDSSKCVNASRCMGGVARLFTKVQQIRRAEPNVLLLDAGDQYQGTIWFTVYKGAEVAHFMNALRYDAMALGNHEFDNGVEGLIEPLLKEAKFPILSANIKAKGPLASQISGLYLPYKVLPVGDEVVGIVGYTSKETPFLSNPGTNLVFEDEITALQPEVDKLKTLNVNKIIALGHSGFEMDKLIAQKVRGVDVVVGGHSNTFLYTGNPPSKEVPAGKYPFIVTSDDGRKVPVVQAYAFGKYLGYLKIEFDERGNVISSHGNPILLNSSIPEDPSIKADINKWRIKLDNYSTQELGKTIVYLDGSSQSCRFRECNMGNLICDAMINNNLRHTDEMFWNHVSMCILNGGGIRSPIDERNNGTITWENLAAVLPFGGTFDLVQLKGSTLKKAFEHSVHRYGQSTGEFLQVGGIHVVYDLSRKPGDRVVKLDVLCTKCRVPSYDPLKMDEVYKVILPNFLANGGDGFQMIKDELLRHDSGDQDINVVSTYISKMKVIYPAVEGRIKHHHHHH

T4: murine CD73 (on transfected CHOK1 cells) (mouse, UniProt Q61503 29-551)
T4 construct: whole, on cells; also called CHOK1-mCD73; mCD73
T4 sequence (looked up): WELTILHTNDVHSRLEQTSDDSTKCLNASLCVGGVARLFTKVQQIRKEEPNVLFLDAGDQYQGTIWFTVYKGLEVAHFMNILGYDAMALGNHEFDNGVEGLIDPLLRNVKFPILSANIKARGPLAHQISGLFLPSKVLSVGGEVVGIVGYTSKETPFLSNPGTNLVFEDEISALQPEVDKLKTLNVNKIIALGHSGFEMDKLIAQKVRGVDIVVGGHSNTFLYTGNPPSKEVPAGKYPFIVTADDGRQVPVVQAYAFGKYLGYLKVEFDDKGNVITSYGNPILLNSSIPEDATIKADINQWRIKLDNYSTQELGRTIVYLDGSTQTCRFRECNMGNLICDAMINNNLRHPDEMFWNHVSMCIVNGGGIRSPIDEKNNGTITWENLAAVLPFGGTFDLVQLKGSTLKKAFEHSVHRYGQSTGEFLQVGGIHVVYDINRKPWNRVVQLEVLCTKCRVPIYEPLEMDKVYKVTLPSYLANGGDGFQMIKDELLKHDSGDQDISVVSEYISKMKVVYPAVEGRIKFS


What was measured:
[1] = target: T1, cynomolgus monkey CD73 (on transfected …); experiment: FACS on CHOK1-cCD73 cells
[2] = target: T2, human CD73 (full length, on transfected …); experiment: FACS on CHOK1-hCD73 cells
[3] = target: T3, His-tagged CD73 extracellular domain …; experiment: Octet BLI, antibody on AHC sensor, antigen 50-200 nM, 1:1 fit
Source text: Octet Red 96 was selected as the test instrument, and AHC biosensor was selected as the test sensor in this experiment. Anti-human IgG Fc antibody has been immobilized on the AHC sensor, which can be used to directly capture the 15 antibodies in this experiment. Then the sensor was immersed in the analysis sample (antigen). There were five steps in this experiment: 1, Baseline (120 s) 2, Loading (capture antibody) (300 s) 3, Baseline (120 s) 4, Association (binding antigen) (180 s) 5, Dissociation (antigen dissociation) (1200 s). After the test was completed, the regeneration buffer (Glycine PH1.5) and the neutralization buffer (1*PBS buffer) were alternately immersed for 5 seconds, and the sensor was regenerated by a total of five cycles. The maximum number of sensor regeneration times is 10. The running buffer in this experiment is the sample diluent (1*PBS buffer containing 0.02% Tween20 and 0.1% BSA), that is, the buffer used in the Baseline step, the Dissociation step, and the blank analyte sample. Four sensors are used at one running in this experiment.
Sample treatment: all the antibodies were diluted to the working concentration of 10 ug/ml with sample diluent (1*PBS buffer containing 0.02% Tween20 and 0.1% BSA), and the analyte samples (antigens) were diluted to three working concentrations: 200 nM, 100 nM and 50 nM.
For data analysis, Octet Data Analysis (version 7.0) was used to calculate the response signal value (the signal of the coupled analyte sample minus the signal of the blank analyte sample), and a 1:1 binding model was used to fit the data.

[4] = target: T4, murine CD73 (on transfected CHOK1 cells); experiment: FACS on CHOK1-mCD73 cells
[5] = target: T2, human CD73 (full length, on transfected …); experiment: cell-based or functional assay
[6] = target: T3, His-tagged CD73 extracellular domain …; experiment: affinity to hCD73 ECD-His (headed SPR; Octet assumed as in 5.5)

Binder	EC50 [1]	MAX MFI fold [1]	EC50 [2]	MAX MFI fold [2]	Kd [3]	koff [3]	kon [3]	binding result [4]	Inhibition assay of enzyme activity, IC50 [5]	Inhibition assay of enzyme activity, MAX % inhibition [5]	Kd [6]	koff [6]	kon [6]
mab041xhIgG1TM (clone 71E10B3), mouse-human chimeric anti-CD73 antibody (antibody, V domains shown, also called mAb041 chimeric antibody) VH: QVQLQQPGTELVKPGASVKLSCKASGYTFTSYWMHWVKQRPGQGLEWIGNINPSNGGTNYNQKFKSKATLTVDKSSNTASMQLSSLTSEDSAVYYCARGDYGYDWYLDVWGTGTTVTVSS VL: DIVLTQSPASLAVSLGQRAIISCKASQSVSFAGPSLMHWYQQKPGQQPKLLIYRTSNLEAGVPTRFSGSGSGTDFTLNIHPVEEDDAATYYCQQNREFPWTFGGGTKLEIK	2 nM	167 fold	1.3 nM	127 fold	0.298 nM	4.41e-05 s⁻¹	148000 M⁻¹ s⁻¹	no binding	0.7 nM	54.4%	–	–	–
mab044xhIgG1TM (clone 80H7D6), mouse-human chimeric anti-CD73 antibody (antibody, V domains shown, also called mAb044 chimeric antibody) VH: EVKLVESGGGLVQPGGSLRLSCAASGFTFTDYYMSWVRQPPGKALEWLGFIRNKADGSTTEYSASVKGRFTISRDNSQSILYLQMNALRPEDSATYYCTRSPIYFDNWYFDVWGTGTTVTVSS VL: DIVMSQSPSSLAVSVGEKVTMTCKSSQSLLYSNNQKNYLAWYQQKPGQSPKLLIYWASTRESGVPDRFTGSGSGTDFTLTLSSVKAEDLAVYYCQQYYSYPFTFGSGTKLEIK	7.6 nM	174 fold	> 10 nM	> 150 fold	0.086 nM	3.29e-05 s⁻¹	383000 M⁻¹ s⁻¹	no binding	0.1 nM	49.1%	–	–	–
mab030xhIgG1TM (clone 42A5A7), mouse-human chimeric anti-CD73 antibody (antibody, V domains shown, also called mAb030 chimeric antibody) VH: DIQLQESGPGLVKPSQSLSLTCSVTGYSITSRYYWNWIRQFPGNKLEWMGYITYDDNNNYNPSLKNRISITRDTSKNQFFLKLNSVTPEDTATYYCARGGWDPFLYWGQGTLVTVSA VL: DIQMTQSPASLSASVGETVTITCRASDNIYSYLAWYQQKQGKSLQLLVDSAKNLGEGVPSRFSGSGSGTQFYLKINSLQPEDFGVYYCQHYYGTPFTFGGGTKLELK	0.8 nM	138 fold	1.5 nM	114 fold	0.0385 nM	1.16e-05 s⁻¹	302000 M⁻¹ s⁻¹	no binding	0.1 nM	67.4%	0.0316 nM	2.27e-05 s⁻¹	719000 M⁻¹ s⁻¹
mab065xhIgG1TM (clone 125A4E10), mouse-human chimeric anti-CD73 antibody (antibody, V domains shown, also called mAb065 chimeric antibody) VH: EVQLQQSGPELVKPGASVKISCKASGYTFTDYYMNWVKQSHGKSLEWIGNINPNNGDTNYNQKFKGKATLTVDKSSSTASMELRSLTSEDSAVYYCANSGYYYFDYWGQGTTLTVSS VL: DIVMTQSPSSLTVTAGEKVTMSCKSSQSLLNSGNQKNYLTWYQQKPGQPPKVLIYWASTRESGVPDRFTGSGSGTDFTLTISSVQAEDLAVYYCQNDYSYPPTFGGGTNLEIK	3.6 nM	173 fold	1.2 nM	160 fold	0.112 nM	4.86e-05 s⁻¹	434000 M⁻¹ s⁻¹	no binding	0.1 nM	54.7%	–	–	–

Now from value to binder:

EC50 [1]	MAX MFI fold [1]	EC50 [2]	MAX MFI fold [2]	Kd [3]	koff [3]	kon [3]	binding result [4]	Inhibition assay of enzyme activity, IC50 [5]	Inhibition assay of enzyme activity, MAX % inhibition [5]	Kd [6]	koff [6]	kon [6]	Binder
2.3 nM	167 fold	1.8 nM	120 fold	0.124 nM	2.97e-05 s⁻¹	240000 M⁻¹ s⁻¹	no binding	0.8 nM	52.4%	–	–	–	mab038xhIgG1TM (clone 69C9E12), mouse-human chimeric anti-CD73 antibody (antibody, V domains shown, also called mAb038 chimeric antibody) VH: QVQLQQPGTELVNPGASVKLSCKASGYTFTSYWMHWVKQRPGQGLEWIGNINPSNGGTHYNEKFNNKATLTVDKSSSTAYMQLSSLTSEDSAVFYCARGDYAYDWYFTVWGTGTTVTVSS VL: DIVLTQSPASLAVSLGQRAIISCKASQSVSFAGTGLMHWYQQKPGQQPKLLIYRVSNLEAGIPTRFSGSGSRTDFTLNIHPVEEDDAATYYCQQNREFPWTFGGGTKLEIK
5.9 nM	132 fold	2.3 nM	136 fold	0.0592 nM	2.73e-05 s⁻¹	461000 M⁻¹ s⁻¹	no binding	0.5 nM	66.3%	–	–	–	mab042xhIgG1TM (clone 77B9A3), mouse-human chimeric anti-CD73 antibody (antibody, V domains shown, also called mAb042 chimeric antibody) VH: QVQLQQSGAGLVKPGASVKLSCKASGYTFTNYWMHWVKQRPGQGLEWIGMIHPNSGSTNNNEKFKNKATLTVDKSSNTAYMQLSSLTSEDSAVYYCARFFFGGYPHYYALDYWGQGTSVTVSS VL: DIVMTQSQKFMSTTVGDRVSITCKASQNVGTAVAWYQQKPGQSPKLLIYSASDRYTGVPDRLTGSGSGTDFTLTISNVQSEDLADYFCQQYSSFPLFTFGSGTKLVIQ
–	–	–	–	–	–	–	–	–	–	0.0208 nM	1.55e-05 s⁻¹	746000 M⁻¹ s⁻¹	Hu030-2, humanized anti-CD73 antibody (Hu030VH g1 / Hu030VL g0) (antibody, V domains shown, also called antibody 11) VH: QVQLQESGPGLVKPSETLSLTCTVSGYSITSRYYWNWIRQPPGKGLEWIGYITYDDNNNYNPSLKNRVTISRDTSKNQFSLKLSSVTAADTAVYYCARGGWDPFLYWGQGTLVTVSS VL: DIQMTQSPSSLSASVGDRVTITCRASDNIYSYLAWYQQKPGKAPKLLIYSAKNLGEGVPSRFSGSGSGTDFTLTISSLQPEDFATYYCQHYYGTPFTFGGGTKVEIK
